The values that follow come from publication PMC2132603.

The assay concerns the target T1, Sec17p (S. cerevisiae (endogenous in yeast vacuoles)), P32602.
T1 chain: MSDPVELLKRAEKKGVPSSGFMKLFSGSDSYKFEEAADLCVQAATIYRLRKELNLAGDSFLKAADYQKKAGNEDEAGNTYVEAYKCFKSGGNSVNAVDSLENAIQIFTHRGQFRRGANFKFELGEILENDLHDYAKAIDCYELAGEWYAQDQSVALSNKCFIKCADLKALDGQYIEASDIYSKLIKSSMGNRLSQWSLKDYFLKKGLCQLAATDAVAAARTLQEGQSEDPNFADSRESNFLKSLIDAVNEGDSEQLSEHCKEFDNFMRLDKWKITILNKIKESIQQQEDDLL
The assay can be described thus: co-IP. The settings on record: remark: other sources report otherwise.

Where only a bound is given, the exact number is not on record here.

B1: Vam3p, Q12241 1-283 (natural protein)
chain: MSFFDIEAQSSKGNSQQEPQFSTNQKTKELSNLIETFAEQSRVLEKECTKIGSKRDSKELRYKIETELIPNCTSVRDKIESNILIHQNGKLSADFKNLKTKYQSLQQSYNQRKSLFPLKTPISPGTSKERKDIHPRTEAVRQDPESSYISIKVNEQSPLLHNEGQHQLQLQEEQEQQQQGLSQEELDFQTIIHQERSQQIGRIHTAVQEVNAIFHQLGSLVKEQGEQVTTIDENISHLHDNMQNANKQLTRADQHQRDRNKCGKVTLIIIIVVCMVVLLAVLS
B1 had a percent of Vam3p coprecipitated with Sec17p greater than 50%.
